Measurements: patent US20210373004A1

Assays:
[1] = molecular target: Flag-mCherry-ColKhan-Cys-6His (Photorhabdus khanii); test: EIA 8 plex n° 1: colicin coated at 100 nM, Im-RLuc8 alone at 100 nM, luciferase signal
[2] = molecular target: Flag-mCherry-ColErw-Cys-6His (Pectobacterium carotovorum); test: EIA 8 plex n° 2: colicin coated at 100 nM, Im-RLuc8 alone at 100 nM, luciferase signal
[3] = molecular target: Flag-mCherry-ColKhan-Cys-6His (Photorhabdus khanii); test: as above

Measured: RLU

B1: Myc-RLuc8-Im9-6His (protein)
chain: MGGEQKLISEEDLGGSASKVYDPEQRKRMITGPQWWARCKQMNVLDSFINYYDSEKHAENAVIFLHGNATSSYLWRHVVPHIEPVARCIIPDLIGMGKSGKSGNGSYRLLDHYKYLTAWFELLNLPKKIIFVGHDWGAALAFHYAYEHQDRIKAIVHMESVVDVIESWDEWPDIEEDIALIKSEEGEKMVLENNFFVETVLPSKIMRKLEPEEFAAYLEPFKEKGEVRRPTLSWPREIPLVKGGKPDVVQIVRNYNAYLRASDDLPKLFIESDPGFFSNAIVEGAKKFPNTEFVKVKGLHFLQEDAPDEMGKYIKSFVERVLKNEQKLELKHSISDYTEAEFLQLVTTICNADTSSEEELVKLVTHFEEMTEHPSGSDLIYYPKEGDDDSPSGIVNTVKQWRAANGKLEGGGSHHHHHH
> 100000 RLU: all assays above
